Experimental findings from the RNAGym collection of RNA variant scans (doi:10.7554/elife.80360) are described below.

First the molecules themselves.
B1: HDV Ribozyme (parent)
chain: GGCCGGCAUGGUCCCAGCCUCCUCGCUGGCGCCGGCUGGGCAACAUUCCGAGGGGACCGUCCCCUCGGUAAUGGCGAAUGGGACCCA

The variants in this series derive from B1. In words: self-cleavage, relative activity (ratio to wild type); higher = more cleavage; co-transcriptional.
Consider GGCCGGCAUGGUCCCAGCCUCCUCGCUGGCGCCGGCUGGGCAACAUUCCGAGGGAACAGUCCCCUCGGUAAUGGCGAAUGGGACCCA [G55A C58A], for which the self-cleavage was 0.978.
GGCCGGCAUGGUCCCAGCCUCCUCGCUGGCGCCGGCUGGGCAACAUUCCGAGGGAACUGUCCCCUCGGUAAUGGCGAAUGGGACCCA [G55A C58U]: the self-cleavage is 1.07.
Regarding GGCCGGCAUGGUCCCAGCCUCCUCGCUGGCGCCGGCUGGGCAACAUUCCGAGGUGACCGUCCCCUCGGUAAUGGCGAAUCGGACCCA [G54U G80C], the self-cleavage came out at 0.159.
As for GGCCGGCAUGGUCCCAGCCUCCUCGCUGGCGCCGGCUGGGCAACAUUCCGAGGGAACCGUCCCCUCGGUAAUGGCGAAUGGGACCCC [G55A A87C], the figure is 1.1; as for GGCCGGCAUGGUCCCAGCCUCCUCGCUGGCGCCGGCUGGGCAACAUUCCGAGGGAACCGUCCCCUCGGUAAUGGCGAAUGGGACCCU [G55A A87U], 1; as for GGCCGGCAUGGUCCCAGCCUCCUCGCUGGCGCCGGCUGGGCAACAUUCCGAGGGAACCGUCCCCUCGGUAAUGGCGAAUGGGACCCG [G55A A87G], 0.966.
With GGCCGGCAUGGUCCCAGCCUCCUCGCUGGCGCCGGCUGGGCAACAUUCCGAGGGAACCGUCCCCUCGGUAAUGGCGAAUGCGACCCA [G55A G81C], the self-cleavage worked out at 0.312.
On to GGCCGGCAUGGUCCCAGCCUCCUCGCUGGCGCCGGCUGGGCAACAUUCCGAGGGAACCGUCCCCUCGGUAAUGGCGAAUGGGACCCA [G55A], for which the self-cleavage came out at 0.996.
On to GGCCGGCAUGGUCCCAGCCUCCUCGCUGGCGCCGGCUGGGCAACAUUCCGAGGGCACCGUCCCCUCGGUAAUGGCGAAUGGGACCCA [G55C], for which the self-cleavage turned out to be 1.02.
As for GGCCGGCAUGGUCCCAGCCUCCUCGCUGGCGCCGGCUGGGCAACAUUCCGAGGGAACCGUUCCCUCGGUAAUGGCGAAUGGGACCCA [G55A C61U], the figure is 0.96.
As for GGCCGGCAUGGUCCCAGCCUCCUCGCUGGCGCCGGCUGGGCAACAUUCCGAGGUGACCGUCCCCCCGGUAAUGGCGAAUGGGACCCA [G54U U65C], the figure is 0.969; as for GGCCGGCAUGGUCCCAGCCUCCUCGCUGGCGCCGGCUGGGCAACAUUCCGAGGUGACCGUCCCCGCGGUAAUGGCGAAUGGGACCCA [G54U U65G], 0.782; as for GGCCGGCAUGGUCCCAGCCUCCUCGCUGGCGCCGGCUGGGCAACAUUCCGAGGGAACCGUCCCCUCGGUGAUGGCGAAUGGGACCCA [G55A A70G], 0.89.
To GGCCGGCAUGGUCCCAGCCUCCUCGCUGGCGCCGGCUGGGCAACAUUCCGAGGUGACCGUCCCCUCGGUAAUGGCGAAGGGGACCCA [G54U U79G] belongs 0.266.
As to GGCCGGCAUGGUCCCAGCCUCCUCGCUGGCGCCGGCUGGGCAACAUUCCGAGGGAUCCGUCCCCUCGGUAAUGGCGAAUGGGACCCA [G55A A56U], the self-cleavage turned out to be 0.926.
As for GGCCGGCAUGGUCCCAGCCUCCUCGCUGGCGCCGGCUGGGCAACAUUCCGAGGGAACCGUCCCCUCGGUAAUGGAGAAUGGGACCCA [G55A C75A], the figure is 0.254; as for GGCCGGCAUGGUCCCAGCCUCCUCGCUGGCGCCGGCUGGGCAACAUUCCGAGGGAACCGUCCCCUUGGUAAUGGCGAAUGGGACCCA [G55A C66U], 1.11; as for GGCCGGCAUGGUCCCAGCCUCCUCGCUGGCGCCGGCUGGGCAACAUUCCGAGGGAACCGUCCCCUAGGUAAUGGCGAAUGGGACCCA [G55A C66A], 1.07.
As for GGCCGGCAUGGUCCCAGCCUCCUCGCUGGCGCCGGCUGGGCAACAUUCCGAGGGCACCGUCCCCUCGGUCAUGGCGAAUGGGACCCA [G55C A70C], the figure is 0.932.
To GGCCGGCAUGGUCCCAGCCUCCUCGCUGGCGCCGGCUGGGCAACAUUCCGAGGGCACCGUCCCCUCGGUUAUGGCGAAUGGGACCCA [G55C A70U] belongs 0.96; to GGCCGGCAUGGUCCCAGCCUCCUCGCUGGCGCCGGCUGGGCAACAUUCCGAGGGAACCGUCCCCUCGGUAAUGCCGAAUGGGACCCA [G55A G74C], 0.208; to GGCCGGCAUGGUCCCAGCCUCCUCGCUGGCGCCGGCUGGGCAACAUUCCGAGGUGACCGUCCCCUCGGUAACGGCGAAUGGGACCCA [G54U U72C], 0.554.
For GGCCGGCAUGGUCCCAGCCUCCUCGCUGGCGCCGGCUGGGCAACAUUCCGAGGUGACCGUCCCCUCGGUAAAGGCGAAUGGGACCCA [G54U U72A], the self-cleavage turned out to be 0.614.
To GGCCGGCAUGGUCCCAGCCUCCUCGCUGGCGCCGGCUGGGCAACAUUCCGAGGUGACCGUCCCCUCGGUAAGGGCGAAUGGGACCCA [G54U U72G] belongs 0.919; to GGCCGGCAUGGUCCCAGCCUCCUCGCUGGCGCCGGCUGGGCAACAUUCCGAGGGAAACGUCCCCUCGGUAAUGGCGAAUGGGACCCA [G55A C57A], 0.927; to GGCCGGCAUGGUCCCAGCCUCCUCGCUGGCGCCGGCUGGGCAACAUUCCGAGGGAAGCGUCCCCUCGGUAAUGGCGAAUGGGACCCA [G55A C57G], 1.07.
Turning to GGCCGGCAUGGUCCCAGCCUCCUCGCUGGCGCCGGCUGGGCAACAUUCCGAGGGAACCGUCCGCUCGGUAAUGGCGAAUGGGACCCA [G55A C63G], the self-cleavage was found to be 0.632.
GGCCGGCAUGGUCCCAGCCUCCUCGCUGGCGCCGGCUGGGCAACAUUCCGAGGGAACCGUCCACUCGGUAAUGGCGAAUGGGACCCA [G55A C63A]: the self-cleavage turned out to be 1.21.
As for GGCCGGCAUGGUCCCAGCCUCCUCGCUGGCGCCGGCUGGGCAACAUUCCGAGGGAACCGUCCCCUCUGUAAUGGCGAAUGGGACCCA [G55A G67U], the figure is 1.12.
As for GGCCGGCAUGGUCCCAGCCUCCUCGCUGGCGCCGGCUGGGCAACAUUCCGAGGGAACCGUCCCCUCCGUAAUGGCGAAUGGGACCCA [G55A G67C], the self-cleavage was 0.942.
With GGCCGGCAUGGUCCCAGCCUCCUCGCUGGCGCCGGCUGGGCAACAUUCCGAGGGAACCGUCCCCUCGGUAAUGGCGAGUGGGACCCA [G55A A78G], the self-cleavage stood at 0.698.
As to GGCCGGCAUGGUCCCAGCCUCCUCGCUGGCGCCGGCUGGGCAACAUUCCGAGGGAACCGUCCCCUCGGUAAUGGCGAUUGGGACCCA [G55A A78U], the self-cleavage was 0.201.
